Where two headings read alike, the source gives them in different places. One block for each substance: values may come before it.
Key:
[1] = target: AL-12 R65S restorative mutant light chain variable domain protein (human) (UniProt P01594); assay: HPLC sedimentation assay
[2] = target: AL-09 H87Y restorative mutant light chain variable domain protein (human) (UniProt P01594); assay: HPLC sedimentation assay
[3] = target: AL-09 H87Y restorative mutant light chain variable domain protein (human) (UniProt P01594); assay: HPLC sedimentation assay; remark: listed apart in the source
[4] = target: κI O18/O8 germline (control) light chain variable domain protein (human) (UniProt P01594); assay: HPLC sedimentation assay
[5] = target: κI O18/O8 germline (control) light chain variable domain protein (human) (UniProt P01594); assay: HPLC sedimentation assay; remark: listed apart in the source
[6] = target: immunoglobulin light chain κI O18/O8 variable domain (Homo sapiens) (UniProt P01594); conditions: cited from earlier work

critical concentration (Cr) of fibril growth [1]: 3.4 µM
Substance: AL-12 R65S restorative mutant light chain variable domain protein (from UniProt P01594 23-111) (domain or fragment)

critical concentration (Cr) of fibril growth [2]: 2.4 µM
critical concentration (Cr) of fibril growth [3]: 2.8 µM
Substance: AL-09 H87Y restorative mutant light chain variable domain protein (from UniProt P01594 23-117) (domain or fragment)

critical concentration (Cr) of fibril growth [4]: 1.2 µM
critical concentration (Cr) of fibril growth [5]: 3.2 µM
Substance: κI O18/O8 germline (control) light chain variable domain protein (from UniProt P01594 23-117) (domain or fragment)

Substance: immunoglobulin light chain κI O18/O8 variable domain (from UniProt P01594)
Kd [6]: 217 µM

— article PMC6650354
